Experimental data published in patent publication US20160137740A1.

Target: KO_CRD4+linker (human OX40 aa 147 to 214 replaced with the mouse counterparts) (human; mouse)
Assay: flow cytometry, transfected 293F cells, column KO_CRD4+linker

Sequence of KO_CRD4+linker (human OX40 aa 147 to 214 replaced with the mouse counterparts) (human; mouse) (chain, as listed by the source limits assumed, form in doubt): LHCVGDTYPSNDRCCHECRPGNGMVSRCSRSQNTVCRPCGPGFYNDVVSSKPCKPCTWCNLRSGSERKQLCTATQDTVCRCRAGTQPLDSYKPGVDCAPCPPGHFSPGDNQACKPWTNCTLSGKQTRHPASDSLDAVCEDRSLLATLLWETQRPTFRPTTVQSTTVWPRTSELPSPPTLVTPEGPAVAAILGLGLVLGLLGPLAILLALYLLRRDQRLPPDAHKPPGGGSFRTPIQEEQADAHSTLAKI

percent of cells in the Alexa Fluor 488 gate (number printed over the gate): 52.7
B1: 9B12 (antibody, mouse IgG1, V domains shown)
VH: EVQLQESGPSLVKPSQTLSLTCSVTGDSFTSGYWNWIRKFPGNRLEYMGYISYNGITYHNPSLKSRISITRDTSKNHYYLQLNSVTTEDTATYFCARYRYDYDGGHAMDYWGQGTLVTVSS
VL: DIQMTQTTSSLSASLGDRVTISCRASQDISNYLNWYQQKPDGTVKLLIYYTSKLHSGVPSRFSGSGSRTDYSLTITDLDQEDIATYFCQQGSALPWTFGQGTKVEIKR
